Measurements as given in patent CN115433277A.

Molecular target: CD38 FC融合标签蛋白 (CD38 Fc fusion tag protein, expressed in 293F cells) (UniProt P28907)
Assay: indirect ELISA, CD38 protein coated at 1 μg/ml, B cell culture supernatant, goat anti-rabbit IgG-HRP

B1: 命名为8A1的兔重组单克隆抗体 (anti-CD38 rabbit recombinant monoclonal antibody 8A1) (antibody, V domains shown)
VH: QSLEESGGDLVKPAGSLTLTCTASGFSFSTSYWICWVRQAPGKGLEWIACIYTGSGSTPYASWAKGRFTISKTSSTTVTLQVTSLTAADTATYFCARDPGVHSGTNLWGQGTLVSVSS
VL: DVVMTQTPASVSAAVGGTVTIKCQASEDINTLLAWYQQKPGQPPKLLIYLASNLASGVSSRFKGSRSGTEFTLTISDLECADAATYYCQCTYYGSTYGGTFGGGTEVVVK
B1 was tested, and the OD450 was 2.23 OD450.

B2: 命名为8H7的兔重组单克隆抗体 (anti-CD38 rabbit recombinant monoclonal antibody 8H7) (antibody, V domains shown)
VH: QSVKESEGGLFKPTDTLTLTCTVSGFSLSSYGVIWVRQAPGKGLEYIGFVAVGGTTYYANWAKSRSTITRNTNENTVTLKMTSLTAADTATYFCVRNGVSGSSDIWGPGTLVTVSS
VL: AYDMTQTPASVSEPVGGTVTIKCQASQSIYSYLSWYQQKLGQPPKLLIYSASTLASGVSSRFKGSGSGTEYTLTISGVECADAATYYCQQDYSGSNVDNTFGGGTEVVVK
Work on B2 yielded an OD450 of 1.78 OD450.
